According to paper PMC8552062, “Contributions of UDP-Glucuronosyltransferases to Human Hepatic and Intestinal Metabolism of Ticagrelor and Inhibition of UGTs and Cytochrome P450 Enzymes by Ticagrelor and its Glucuronidated Metabolite” (Frontiers in Pharmacology, 2021):

What was measured:
[1] = tested on: ticagrelor glucuronidation in pooled HIM; assay: Effects of typical UGT inhibitors on ticagrelor glucuronidation in pooled HIM; type: in vitro ADME, human; conditions: 10 μM ticagrelor
Method: (§1) Ticagrelor glucuronidation was investigated in an in vitro incubation system by using HLM, HIM, and recombinant human UGTs. The incubation system consisted of enzyme sources (HLM, HIM, or human recombinant UGTs), various concentrations of ticagrelor (dissolved in 50% methanol, 1% v/v, 1, 2, 5, 10, 20, 50, 100, 200, 500 μM of final concentration), alamethicin (50 μg/mg protein), 5 mM MgCl2, 100 mM tris-HCL buffer (pH 7.4), and 5 mM UDPGA in a total volume of 100 μl. Alamethicin is a pore-forming polypeptide used to activate UGTs in HLM and HIM ([Fisher et al., 2000]). Preliminary studies were conducted to determine the optimal protein concentrations and incubation times. Linear conditions of ticagrelor-O-Glu formation from ticagrelor, i.e., HLM, 0.2 mg of protein/ml and 60 min, HIM, 0.2 mg of protein/ml and 60 min, and recombinant human UGTs, 0.2 mg of protein/ml and 60 min were selected. The incubation mixture without UDPGA was placed on ice for 15 min to activate UGT by alamethicin. After pre-incubation for 5 min at 37°C, the reactions were started by the addition of UDPGA. After another 60 min of incubation at 37°C, the reaction was terminated by adding 100 μl of acetonitrile containing internal standard (diazepam). The mixture vortexed for 2 min and then centrifuged at 14,000 rpm for 10 min at 4°C. The resulting supernatant was injected into a liquid chromatography tandem mass spectrometry (LC-MS/MS, Applied Biosystems/MDS Sciex, Foster City, CA) system for the detection of ticagrelor-O-Glu.
(§2) The final concentrations of UGT inhibitors for each UGT isoform were set in accordance with previous publications as follows: atazanavir, 1 μM, UGT1A1; celastrol, 5 μM, UGT1A3; hecogenin, 1 μM, UGT1A4; niflumic acid, 1 μM, UGT1A9; and mefenamic acid, 20 μM, UGT2B7 ([Lee et al., 2019]). The assays were performed as described above, with 10 μM ticagrelor. The percentage of remaining glucuronidation activity was expressed by the following equation: Remaining activity(%)=Concentration of ticagrelor-O-Glu with inhibitor /Concentration of ticagrelor-O-Glu without inhibitor×100.

[2] = tested on: ticagrelor glucuronidation in pooled HLM; assay: Effects of typical UGT inhibitors on ticagrelor glucuronidation in pooled HLM; type: in vitro ADME, human; conditions: 10 μM ticagrelor
Method: as §1, §2

[3] = substrate: CCCSc1nc(N[C@@H]2C[C@H]2c2ccc(F)c(F)c2)c2nnn([C@@H]3C[C@H](OCCO)[C@@H](O)[C@H]3O)c2n1; assay: Ticagrelor glucuronidation by recombinant human UGT1A3; type: in vitro ADME; conditions: other: recombinant UGT1A3, Michaelis-Menten kinetics; pH 7.4; 37.0 °C
Method: as §1
(§3) Kinetic analyses were performed using the mean values of triplicate determinations with either pooled HLM, HIM, or recombinant human UGTs. All data were analyzed by nonlinear regression analysis using the GraphPad Prism 6 (GraphPad Software Inc., CA, United States). Michaelis-Menten kinetics (Eq. 1) or substrate inhibition kinetics (Eq. 2) ([Houston and Kenworthy, 2000]) were tested to determine the optimal model for describing the data. […] Intrinsic clearance (CLint) was calculated by dividing Vmax by Km.

[4] = substrate: CCCSc1nc(N[C@@H]2C[C@H]2c2ccc(F)c(F)c2)c2nnn([C@@H]3C[C@H](OCCO)[C@@H](O)[C@H]3O)c2n1; assay: Ticagrelor glucuronidation by recombinant human UGT1A1; type: in vitro ADME; conditions: other: recombinant UGT1A1, Michaelis-Menten kinetics; pH 7.4; 37.0 °C
Method: as §1, §3

[5] = substrate: CCCSc1nc(N[C@@H]2C[C@H]2c2ccc(F)c(F)c2)c2nnn([C@@H]3C[C@H](OCCO)[C@@H](O)[C@H]3O)c2n1; assay: Ticagrelor glucuronidation by recombinant human UGT2B7; type: in vitro ADME; conditions: other: recombinant UGT2B7, Michaelis-Menten kinetics; pH 7.4; 37.0 °C
Method: as §1, §3

[6] = substrate: CCCSc1nc(N[C@@H]2C[C@H]2c2ccc(F)c(F)c2)c2nnn([C@@H]3C[C@H](OCCO)[C@@H](O)[C@H]3O)c2n1; assay: Ticagrelor glucuronidation by recombinant human UGT1A9; type: in vitro ADME; conditions: other: recombinant UGT1A9, Michaelis-Menten kinetics; pH 7.4; 37.0 °C
Method: as §1, §3

[7] = substrate: CCCSc1nc(N[C@@H]2C[C@H]2c2ccc(F)c(F)c2)c2nnn([C@@H]3C[C@H](OCCO)[C@@H](O)[C@H]3O)c2n1; assay: Ticagrelor glucuronidation by recombinant human UGT1A7; type: in vitro ADME; conditions: other: recombinant UGT1A7, Michaelis-Menten kinetics; pH 7.4; 37.0 °C
Method: as §1, §3

[8] = substrate: CCCSc1nc(N[C@@H]2C[C@H]2c2ccc(F)c(F)c2)c2nnn([C@@H]3C[C@H](OCCO)[C@@H](O)[C@H]3O)c2n1; assay: Ticagrelor glucuronidation by recombinant human UGT1A8; type: in vitro ADME; conditions: other: recombinant UGT1A8, Michaelis-Menten kinetics; pH 7.4; 37.0 °C
Method: as §1, §3

COC(=O)N[C@H](C(=O)N[C@@H](Cc1ccccc1)[C@@H](O)CN(Cc1ccc(-c2ccccn2)cc1)NC(=O)[C@@H](NC(=O)OC)C(C)(C)C)C(C)(C)C [atazanavir]
inhibition of ticagrelor-O-Glu formation ([1]; inhibitor 1 μM): 6.08%
inhibition of ticagrelor-O-Glu formation ([2]; inhibitor 1 μM): 6.66%

CC1=C(O)C(=O)C=C2C1=CC=C1[C@@]2(C)CC[C@@]2(C)[C@@H]3C[C@](C)(C(=O)O)CC[C@]3(C)CC[C@]12C [celastrol]
inhibition of ticagrelor-O-Glu formation ([1]; inhibitor 5 μM): 25.02%
inhibition of ticagrelor-O-Glu formation ([2]; inhibitor 5 μM): 19.35%

Cc1cccc(Nc2ccccc2C(=O)O)c1C [mefenamic acid]
inhibition of ticagrelor-O-Glu formation ([1]; inhibitor 20 μM): 19.24%
inhibition of ticagrelor-O-Glu formation ([2]; inhibitor 20 μM): 42.95%

O=C(O)c1cccnc1Nc1cccc(C(F)(F)F)c1 [niflumic acid]
inhibition of ticagrelor-O-Glu formation ([1]; inhibitor 1 μM): 17.45%
inhibition of ticagrelor-O-Glu formation ([2]; inhibitor 1 μM): 35.48%

hecogenin
inhibition of ticagrelor-O-Glu formation ([1]; inhibitor 1 μM): 16.75%
inhibition of ticagrelor-O-Glu formation ([2]; inhibitor 1 μM): 9.29%

B1: recombinant human UGT1A3 (Homo sapiens) (protein)
chain: GKVLVVPIDGSHWLSMREVLRELHARGHQAVVLTPEVNMHIKEENFFTLTTYAISWTQDEFDRHVLGHTQLYFETEHFLKKFFRSMAMLNNMSLVYHRSCVELLHNEALIRHLNATSFDVVLTDPVNLCAAVLAKYLSIPTVFFLRNIPCDLDFKGTQCPNPSSYIPRLLTTNSDHMTFMQRVKNMLYPLALSYICHAFSAPYASLASELFQREVSVVDILSHASVWLFRGDFVMDYPRPIMPNMVFIGGINCANRKPLSQEFEAYINASGEHGIVVFSLGSMVSEIPEKKAMAIADALGKIPQTVLWRYTGTRPSNLANNTILVKWLPQNDLLGHPMTRAFITHAGSHGVYESICNGVPMVMMPLFGDQMDNAKRMETKGAGVTLNVLEMTSEDLENALKAVINDKSYKENIMRLSSLHKDRPVEPLDLAVFWVEFVMRHKGAPHLRPAAHDLTWYQYHSLDVIGFLLAVVLTVAFITFKCCAYGYRKCLGKKGRVKKAHKSKTH
notes: purchased BD Gentest; host or cells: baculovirus-infected insect cells
Km [3]: 19.19 µM
Vmax [3]: 7.8e-07 µmol/min/mg
Vmax/Km [3]: 0.04 µL/min/mg

B2: recombinant human UGT1A1 (Homo sapiens) (protein)
chain: HAGKILLIPVDGSHWLSMLGAIQQLQQRGHEIVVLAPDASLYIRDGAFYTLKTYPVPFQREDVKESFVSLGHNVFENDSFLQRVIKTYKKIKKDSAMLLSGCSHLLHNKELMASLAESSFDVMLTDPFLPCSPIVAQYLSLPTVFFLHALPCSLEFEATQCPNPFSYVPRPLSSHSDHMTFLQRVKNMLIAFSQNFLCDVVYSPYATLASEFLQREVTVQDLLSSASVWLFRSDFVKDYPRPIMPNMVFVGGINCLHQNPLSQEFEAYINASGEHGIVVFSLGSMVSEIPEKKAMAIADALGKIPQTVLWRYTGTRPSNLANNTILVKWLPQNDLLGHPMTRAFITHAGSHGVYESICNGVPMVMMPLFGDQMDNAKRMETKGAGVTLNVLEMTSEDLENALKAVINDKSYKENIMRLSSLHKDRPVEPLDLAVFWVEFVMRHKGAPHLRPAAHDLTWYQYHSLDVIGFLLAVVLTVAFITFKCCAYGYRKCLGKKGRVKKAHKSKTH
notes: as for B1
Km [4]: 7.57 µM
Vmax [4]: 2e-07 µmol/min/mg
Vmax/Km [4]: 0.03 µL/min/mg

B3: recombinant human UGT2B7 (Homo sapiens) (protein)
chain: GKVLVWAAEYSHWMNIKTILDELIQRGHEVTVLASSASILFDPNNSSALKIEIYPTSLTKTELENFIMQQIKRWSDLPKDTFWLYFSQVQEIMSIFGDITRKFCKDVVSNKKFMKKVQESRFDVIFADAIFPCSELLAELFNIPFVYSLSFSPGYTFEKHSGGFIFPPSYVPVVMSELTDQMTFMERVKNMIYVLYFDFWFEIFDMKKWDQFYSEVLGRPTTLSETMGKADVWLIRNSWNFQFPYPLLPNVDFVGGLHCKPAKPLPKEMEDFVQSSGENGVVVFSLGSMVSNMTEERANVIASALAQIPQKVLWRFDGNKPDTLGLNTRLYKWIPQNDLLGHPKTRAFITHGGANGIYEAIYHGIPMVGIPLFADQPDNIAHMKARGAAVRVDFNTMSSTDLLNALKRVINDPSYKENVMKLSRIQHDQPVKPLDRAVFWIEFVMRHKGAKHLRVAAHDLTWFQYHSLDVIGFLLVCVATVIFIVTKCCLFCFWKFARKAKKGKND
notes: as for B1
Km [5]: 14.53 µM
Vmax [5]: 2.3e-07 µmol/min/mg
Vmax/Km [5]: 0.02 µL/min/mg

B4: recombinant human UGT1A9 (Homo sapiens) (protein)
chain: GKLLVVPMDGSHWFTMRSVVEKLILRGHEVVVVMPEVSWQLGRSLNCTVKTYSTSYTLEDLDREFKAFAHAQWKAQVRSIYSLLMGSYNDIFDLFFSNCRSLFKDKKLVEYLKESSFDAVFLDPFDNCGLIVAKYFSLPSVVFARGILCHYLEEGAQCPAPLSYVPRILLGFSDAMTFKERVRNHIMHLEEHLLCHRFFKNALEIASEILQTPVTEYDLYSHTSIWLLRTDFVLDYPKPVMPNMIFIGGINCHQGKPLPMEFEAYINASGEHGIVVFSLGSMVSEIPEKKAMAIADALGKIPQTVLWRYTGTRPSNLANNTILVKWLPQNDLLGHPMTRAFITHAGSHGVYESICNGVPMVMMPLFGDQMDNAKRMETKGAGVTLNVLEMTSEDLENALKAVINDKSYKENIMRLSSLHKDRPVEPLDLAVFWVEFVMRHKGAPHLRPAAHDLTWYQYHSLDVIGFLLAVVLTVAFITFKCCAYGYRKCLGKKGRVKKAHKSKTH
notes: as for B1
Km [6]: 1.60 µM
Vmax [6]: 9e-07 µmol/min/mg
Vmax/Km [6]: 0.56 µL/min/mg

B5: recombinant human UGT1A7 (Homo sapiens) (protein)
chain: GKLLVVPMDGSHWFTMQSVVEKLILRGHEVVVVMPEVSWQLGRSLNCTVKTYSTSYTLEDQDREFMVFADARWTAPLRSAFSLLTSSSNGIFDLFFSNCRSLFNDRKLVEYLKESCFDAVFLDPFDACGLIVAKYFSLPSVVFARGIFCHYLEEGAQCPAPLSYVPRLLLGFSDAMTFKERVWNHIMHLEEHLFCPYFFKNVLEIASEILQTPVTAYDLYSHTSIWLLRTDFVLEYPKPVMPNMIFIGGINCHQGKPVPMEFEAYINASGEHGIVVFSLGSMVSEIPEKKAMAIADALGKIPQTVLWRYTGTRPSNLANNTILVKWLPQNDLLGHPMTRAFITHAGSHGVYESICNGVPMVMMPLFGDQMDNAKRMETKGAGVTLNVLEMTSEDLENALKAVINDKSYKENIMRLSSLHKDRPVEPLDLAVFWVEFVMRHKGAPHLRPAAHDLTWYQYHSLDVIGFLLAVVLTVAFITFKCCAYGYRKCLGKKGRVKKAHKSKTH
notes: as for B1
Km [7]: 1.68 µM
Vmax [7]: 1.2e-07 µmol/min/mg
Vmax/Km [7]: 0.07 µL/min/mg

B6: recombinant human UGT1A8 (Homo sapiens) (protein)
chain: GKLLVVPMDGSHWFTMQSVVEKLILRGHEVVVVMPEVSWQLGKSLNCTVKTYSTSYTLEDLDREFMDFADAQWKAQVRSLFSLFLSSSNGFFNLFFSHCRSLFNDRKLVEYLKESSFDAVFLDPFDACGLIVAKYFSLPSVVFARGIACHYLEEGAQCPAPLSYVPRILLGFSDAMTFKERVRNHIMHLEEHLFCQYFSKNALEIASEILQTPVTAYDLYSHTSIWLLRTDFVLDYPKPVMPNMIFIGGINCHQGKPLPMEFEAYINASGEHGIVVFSLGSMVSEIPEKKAMAIADALGKIPQTVLWRYTGTRPSNLANNTILVKWLPQNDLLGHPMTRAFITHAGSHGVYESICNGVPMVMMPLFGDQMDNAKRMETKGAGVTLNVLEMTSEDLENALKAVINDKSYKENIMRLSSLHKDRPVEPLDLAVFWVEFVMRHKGAPHLRPAAHDLTWYQYHSLDVIGFLLAVVLTVAFITFKCCAYGYRKCLGKKGRVKKAHKSKTH
notes: as for B1
Km [8]: 6.63 µM
Vmax [8]: 9e-08 µmol/min/mg
Vmax/Km [8]: 0.01 µL/min/mg
